Sequences and labels used below:
B1: GpH7-A5/GpH7-B3 variant G237_06M/GpL16-k0 (antibody, human IgG1, kappa)
heavy 1: not shown
heavy 2: not shown
light: DIVMTQSPLSLPVTPGEPASISCQASESLVHSNRNTYLHWYLQKPGQSPQLLIYKVSNRFSGVPDRFSGSGSGTDFTLKISRVEAEDVGVYYCSQNTHVPPTFGQGTKVEIERTVAAPSVFIFPPSDEQLKSGTASVVCLLNNFYPREAKVQWKVDNALQSGNSQESVTEQDSKDSTYSLSSTLTLSKADYEKHKVYACEVTHQGLSSPVTKSFNRGEC
notes: also called He Ab G237_06M
B2: GpH7-A5/GpH7-B3 variant I336_06M/GpL16-k0 (antibody, human IgG1, kappa)
heavy 1: not shown
heavy 2: not shown
light: DIVMTQSPLSLPVTPGEPASISCQASESLVHSNRNTYLHWYLQKPGQSPQLLIYKVSNRFSGVPDRFSGSGSGTDFTLKISRVEAEDVGVYYCSQNTHVPPTFGQGTKVEIERTVAAPSVFIFPPSDEQLKSGTASVVCLLNNFYPREAKVQWKVDNALQSGNSQESVTEQDSKDSTYSLSSTLTLSKADYEKHKVYACEVTHQGLSSPVTKSFNRGEC
notes: also called He Ab I336_06M
B3: GpH7-A5/GpH7-B3 variant G237_18N/GpL16-k0 (antibody, human IgG1, kappa)
heavy 1: not shown
heavy 2: not shown
light: DIVMTQSPLSLPVTPGEPASISCQASESLVHSNRNTYLHWYLQKPGQSPQLLIYKVSNRFSGVPDRFSGSGSGTDFTLKISRVEAEDVGVYYCSQNTHVPPTFGQGTKVEIERTVAAPSVFIFPPSDEQLKSGTASVVCLLNNFYPREAKVQWKVDNALQSGNSQESVTEQDSKDSTYSLSSTLTLSKADYEKHKVYACEVTHQGLSSPVTKSFNRGEC
notes: also called He Ab G237_18N
B4: GpH7-A5/GpH7-B3 variant L234_09D/GpL16-k0 (antibody, human IgG1, kappa)
heavy 1: not shown
heavy 2: not shown
light: DIVMTQSPLSLPVTPGEPASISCQASESLVHSNRNTYLHWYLQKPGQSPQLLIYKVSNRFSGVPDRFSGSGSGTDFTLKISRVEAEDVGVYYCSQNTHVPPTFGQGTKVEIERTVAAPSVFIFPPSDEQLKSGTASVVCLLNNFYPREAKVQWKVDNALQSGNSQESVTEQDSKDSTYSLSSTLTLSKADYEKHKVYACEVTHQGLSSPVTKSFNRGEC
notes: also called He Ab L234_09D
B5: GpH7-A5/GpH7-B3 variant G237_08L/GpL16-k0 (antibody, human IgG1, kappa)
heavy 1: not shown
heavy 2: not shown
light: DIVMTQSPLSLPVTPGEPASISCQASESLVHSNRNTYLHWYLQKPGQSPQLLIYKVSNRFSGVPDRFSGSGSGTDFTLKISRVEAEDVGVYYCSQNTHVPPTFGQGTKVEIERTVAAPSVFIFPPSDEQLKSGTASVVCLLNNFYPREAKVQWKVDNALQSGNSQESVTEQDSKDSTYSLSSTLTLSKADYEKHKVYACEVTHQGLSSPVTKSFNRGEC
notes: also called He Ab G237_08L
B6: GpH7-A5/GpH7-B3 variant G237_10E/GpL16-k0 (antibody, human IgG1, kappa)
heavy 1: not shown
heavy 2: not shown
light: DIVMTQSPLSLPVTPGEPASISCQASESLVHSNRNTYLHWYLQKPGQSPQLLIYKVSNRFSGVPDRFSGSGSGTDFTLKISRVEAEDVGVYYCSQNTHVPPTFGQGTKVEIERTVAAPSVFIFPPSDEQLKSGTASVVCLLNNFYPREAKVQWKVDNALQSGNSQESVTEQDSKDSTYSLSSTLTLSKADYEKHKVYACEVTHQGLSSPVTKSFNRGEC
notes: also called He Ab G237_10E
B7: GpH7-A5/GpH7-B3 variant G237_09D/GpL16-k0 (antibody, human IgG1, kappa)
heavy 1: not shown
heavy 2: not shown
light: DIVMTQSPLSLPVTPGEPASISCQASESLVHSNRNTYLHWYLQKPGQSPQLLIYKVSNRFSGVPDRFSGSGSGTDFTLKISRVEAEDVGVYYCSQNTHVPPTFGQGTKVEIERTVAAPSVFIFPPSDEQLKSGTASVVCLLNNFYPREAKVQWKVDNALQSGNSQESVTEQDSKDSTYSLSSTLTLSKADYEKHKVYACEVTHQGLSSPVTKSFNRGEC
notes: also called He Ab G237_09D
B8: GpH7-A5/GpH7-B3 variant H268_05P/GpL16-k0 (antibody, human IgG1, kappa)
heavy 1: not shown
heavy 2: not shown
light: DIVMTQSPLSLPVTPGEPASISCQASESLVHSNRNTYLHWYLQKPGQSPQLLIYKVSNRFSGVPDRFSGSGSGTDFTLKISRVEAEDVGVYYCSQNTHVPPTFGQGTKVEIERTVAAPSVFIFPPSDEQLKSGTASVVCLLNNFYPREAKVQWKVDNALQSGNSQESVTEQDSKDSTYSLSSTLTLSKADYEKHKVYACEVTHQGLSSPVTKSFNRGEC
notes: also called He Ab H268_05P
B9: GpH7-A5/GpH7-B3 variant I336_08L/GpL16-k0 (antibody, human IgG1, kappa)
heavy 1: not shown
heavy 2: not shown
light: DIVMTQSPLSLPVTPGEPASISCQASESLVHSNRNTYLHWYLQKPGQSPQLLIYKVSNRFSGVPDRFSGSGSGTDFTLKISRVEAEDVGVYYCSQNTHVPPTFGQGTKVEIERTVAAPSVFIFPPSDEQLKSGTASVVCLLNNFYPREAKVQWKVDNALQSGNSQESVTEQDSKDSTYSLSSTLTLSKADYEKHKVYACEVTHQGLSSPVTKSFNRGEC
notes: also called He Ab I336_08L
B10: GpH7-A5/GpH7-B3 variant H268_15Y/GpL16-k0 (antibody, human IgG1, kappa)
heavy 1: not shown
heavy 2: not shown
light: DIVMTQSPLSLPVTPGEPASISCQASESLVHSNRNTYLHWYLQKPGQSPQLLIYKVSNRFSGVPDRFSGSGSGTDFTLKISRVEAEDVGVYYCSQNTHVPPTFGQGTKVEIERTVAAPSVFIFPPSDEQLKSGTASVVCLLNNFYPREAKVQWKVDNALQSGNSQESVTEQDSKDSTYSLSSTLTLSKADYEKHKVYACEVTHQGLSSPVTKSFNRGEC
notes: also called He Ab H268_15Y
B11: GpH7-A5/GpH7-B3 variant I332_14T/GpL16-k0 (antibody, human IgG1, kappa)
heavy 1: not shown
heavy 2: not shown
light: DIVMTQSPLSLPVTPGEPASISCQASESLVHSNRNTYLHWYLQKPGQSPQLLIYKVSNRFSGVPDRFSGSGSGTDFTLKISRVEAEDVGVYYCSQNTHVPPTFGQGTKVEIERTVAAPSVFIFPPSDEQLKSGTASVVCLLNNFYPREAKVQWKVDNALQSGNSQESVTEQDSKDSTYSLSSTLTLSKADYEKHKVYACEVTHQGLSSPVTKSFNRGEC
notes: also called He Ab I332_14T
B12: GpH7-A5/GpH7-B3 variant G237_20W/GpL16-k0 (antibody, human IgG1, kappa)
heavy 1: not shown
heavy 2: not shown
light: DIVMTQSPLSLPVTPGEPASISCQASESLVHSNRNTYLHWYLQKPGQSPQLLIYKVSNRFSGVPDRFSGSGSGTDFTLKISRVEAEDVGVYYCSQNTHVPPTFGQGTKVEIERTVAAPSVFIFPPSDEQLKSGTASVVCLLNNFYPREAKVQWKVDNALQSGNSQESVTEQDSKDSTYSLSSTLTLSKADYEKHKVYACEVTHQGLSSPVTKSFNRGEC
notes: also called He Ab G237_20W
B13: GpH7-A5/GpH7-B3 variant K326_20W/GpL16-k0 (antibody, human IgG1, kappa)
heavy 1: not shown
heavy 2: not shown
light: DIVMTQSPLSLPVTPGEPASISCQASESLVHSNRNTYLHWYLQKPGQSPQLLIYKVSNRFSGVPDRFSGSGSGTDFTLKISRVEAEDVGVYYCSQNTHVPPTFGQGTKVEIERTVAAPSVFIFPPSDEQLKSGTASVVCLLNNFYPREAKVQWKVDNALQSGNSQESVTEQDSKDSTYSLSSTLTLSKADYEKHKVYACEVTHQGLSSPVTKSFNRGEC
notes: also called He Ab K326_20W
B14: GpH7-A5/GpH7-B3 variant G237_13S/GpL16-k0 (antibody, human IgG1, kappa)
heavy 1: not shown
heavy 2: not shown
light: DIVMTQSPLSLPVTPGEPASISCQASESLVHSNRNTYLHWYLQKPGQSPQLLIYKVSNRFSGVPDRFSGSGSGTDFTLKISRVEAEDVGVYYCSQNTHVPPTFGQGTKVEIERTVAAPSVFIFPPSDEQLKSGTASVVCLLNNFYPREAKVQWKVDNALQSGNSQESVTEQDSKDSTYSLSSTLTLSKADYEKHKVYACEVTHQGLSSPVTKSFNRGEC
notes: also called He Ab G237_13S
B15: GpH7-A5/GpH7-B3 variant G237_19Q/GpL16-k0 (antibody, human IgG1, kappa)
heavy 1: not shown
heavy 2: not shown
light: DIVMTQSPLSLPVTPGEPASISCQASESLVHSNRNTYLHWYLQKPGQSPQLLIYKVSNRFSGVPDRFSGSGSGTDFTLKISRVEAEDVGVYYCSQNTHVPPTFGQGTKVEIERTVAAPSVFIFPPSDEQLKSGTASVVCLLNNFYPREAKVQWKVDNALQSGNSQESVTEQDSKDSTYSLSSTLTLSKADYEKHKVYACEVTHQGLSSPVTKSFNRGEC
notes: also called He Ab G237_19Q
B16: GpH7-A5/GpH7-B3 variant K326_08L/GpL16-k0 (antibody, human IgG1, kappa)
heavy 1: not shown
heavy 2: not shown
light: DIVMTQSPLSLPVTPGEPASISCQASESLVHSNRNTYLHWYLQKPGQSPQLLIYKVSNRFSGVPDRFSGSGSGTDFTLKISRVEAEDVGVYYCSQNTHVPPTFGQGTKVEIERTVAAPSVFIFPPSDEQLKSGTASVVCLLNNFYPREAKVQWKVDNALQSGNSQESVTEQDSKDSTYSLSSTLTLSKADYEKHKVYACEVTHQGLSSPVTKSFNRGEC
notes: also called He Ab K326_08L
B17: GpH7-A5/GpH7-B3 variant I332_02A/GpL16-k0 (antibody, human IgG1, kappa)
heavy 1: not shown
heavy 2: not shown
light: DIVMTQSPLSLPVTPGEPASISCQASESLVHSNRNTYLHWYLQKPGQSPQLLIYKVSNRFSGVPDRFSGSGSGTDFTLKISRVEAEDVGVYYCSQNTHVPPTFGQGTKVEIERTVAAPSVFIFPPSDEQLKSGTASVVCLLNNFYPREAKVQWKVDNALQSGNSQESVTEQDSKDSTYSLSSTLTLSKADYEKHKVYACEVTHQGLSSPVTKSFNRGEC
notes: also called He Ab I332_02A
B18: GpH7-A5/GpH7-B3 variant H268_03V/GpL16-k0 (antibody, human IgG1, kappa)
heavy 1: not shown
heavy 2: not shown
light: DIVMTQSPLSLPVTPGEPASISCQASESLVHSNRNTYLHWYLQKPGQSPQLLIYKVSNRFSGVPDRFSGSGSGTDFTLKISRVEAEDVGVYYCSQNTHVPPTFGQGTKVEIERTVAAPSVFIFPPSDEQLKSGTASVVCLLNNFYPREAKVQWKVDNALQSGNSQESVTEQDSKDSTYSLSSTLTLSKADYEKHKVYACEVTHQGLSSPVTKSFNRGEC
notes: also called He Ab H268_03V
B19: GpH7-A5/GpH7-B3 variant K326_07I/GpL16-k0 (antibody, human IgG1, kappa)
heavy 1: not shown
heavy 2: not shown
light: DIVMTQSPLSLPVTPGEPASISCQASESLVHSNRNTYLHWYLQKPGQSPQLLIYKVSNRFSGVPDRFSGSGSGTDFTLKISRVEAEDVGVYYCSQNTHVPPTFGQGTKVEIERTVAAPSVFIFPPSDEQLKSGTASVVCLLNNFYPREAKVQWKVDNALQSGNSQESVTEQDSKDSTYSLSSTLTLSKADYEKHKVYACEVTHQGLSSPVTKSFNRGEC
notes: also called He Ab K326_07I
B20: GpH7-A5/GpH7-B3 variant G237_15Y/GpL16-k0 (antibody, human IgG1, kappa)
heavy 1: not shown
heavy 2: not shown
light: DIVMTQSPLSLPVTPGEPASISCQASESLVHSNRNTYLHWYLQKPGQSPQLLIYKVSNRFSGVPDRFSGSGSGTDFTLKISRVEAEDVGVYYCSQNTHVPPTFGQGTKVEIERTVAAPSVFIFPPSDEQLKSGTASVVCLLNNFYPREAKVQWKVDNALQSGNSQESVTEQDSKDSTYSLSSTLTLSKADYEKHKVYACEVTHQGLSSPVTKSFNRGEC
notes: also called He Ab G237_15Y

The target of the test is T1, FcγRIIb (human, UniProt P31994 43-217).
T1 construct: extracellular domain; also called 2b; FcgRIIb
T1 sequence (looked up): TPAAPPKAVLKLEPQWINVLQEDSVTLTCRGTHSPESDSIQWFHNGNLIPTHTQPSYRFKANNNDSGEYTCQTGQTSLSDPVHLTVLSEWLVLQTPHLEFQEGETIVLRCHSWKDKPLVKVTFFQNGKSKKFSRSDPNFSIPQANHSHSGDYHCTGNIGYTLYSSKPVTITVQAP
Nature of the test: SPR (Biacore), binding relative to GpH7-A5/GpH7-B3/GpL16-k0 = 100. On the procedure: Analysis of interaction between objective antibody and the FcγR was carried out using Biacore T100 (GE Healthcare). HBS-EP+ (GE Healthcare) was used as the running buffer, and the measurement temperature was set to 25° C. Chips produced by immobilizing the antigen peptide by the amine coupling method to a Series S Sencor Chip CM5 (GE Healthcare), or alternatively, chips produced by allowing preliminarily biotinylated antigen peptides to interact with and immobilize onto a Series S Sensor Chip SA (certified) (GE Healthcare) were used. Antibodies of interest were captured onto an antigen peptide-immobilized chip, and allowed to interact to each FcγR diluted with running buffer. To regenerate and repeatedly use the chip, the antibodies captured on the chip were washed off by reacting 10 mM glycine-HCl, pH 1.5.
The FcγR-binding activity of each antibody was assessed primarily using as an indicator the FcγR-binding activity and dissociation constant for FcγR.
For the molecule B1, the He/Con_2b was 130 % of control.
For the molecule B2, the He/Con_2b was 101 % of control.
For the molecule B3, the He/Con_2b is 180 % of control.
For B4 the value was 150 % of control.
For B5 the value was 148 % of control.
B6: the He/Con_2b was 114 % of control.
Take B7: the He/Con_2b was 223 % of control.
As for B8, the He/Con_2b is 116 % of control.
Turning to B9, the He/Con_2b was 107 % of control.
For B10 the value was 106 % of control; for B11, 106 % of control.
For B12 the value was 193 % of control; for B13, 148 % of control; for B14, 111 % of control.
For B15 the value was 108 % of control; for B16, 177 % of control.
With B17, the He/Con_2b was 103 % of control.
B18: the He/Con_2b is 114 % of control.
Regarding B19, the He/Con_2b was 199 % of control.
For B20, the He/Con_2b was 152 % of control.

For the origin of these results see patent US20180155451A1 (published 2018).
